Our source for the half-life of plus end to plus end tethering of two MTs by KLIF, percent of filaments dissociated within 2.5 minutes and half-life of association with MTs values is doi:10.1101/2021.11.04.467292.

For test [1], the target named is microtubules polymerised from bovine tubulin, paclitaxel-stabilised (bovine) (UniProt Q6B856). As to the kind of experiment: two-MT assay.
Test [2] deals with KLIF motor domain lacking the N-terminal extension fused to GFP (Trypanosoma brucei). The test can be described thus: gliding filament motility assay.
For test [3], the target named is microtubules polymerised from bovine tubulin, paclitaxel-stabilised (bovine) (UniProt Q6B856). The test can be described thus: TIRF microscopy of Qdot-bound motor on immobilised microtubules.

For “KLIF motor domain construct (amino acids 1-672) fused to a C-terminal GFP (mClover3) tag (domain or fragment)”, the half-life of plus end to plus end tethering of two MTs by KLIF in test [1] was 1.7 min.

As to “microtubules polymerised from bovine tubulin, paclitaxel-stabilised (from UniProt Q6B856 1-445) (complex)”, the percent of filaments dissociated within 2.5 minutes in test [2] is more than 50%.

Take “KLIF motor domain construct (amino acids 1-672) fused to a C-terminal biotin tag (domain or fragment)”: in test [3], the half-life of association with MTs is more than 5 min.
